For nine molecules, binding result and Ki results are on record in patent US7932227 (UNIVERSITY OF VIRGINIA PATENT FOUNDATION, dated 2011).

Experiment [1] deals with T1, human syndecan-1 (SDC1) (human, UniProt P18827 23-310, heparan sulfate and chondroitin sulfate chains; the lacritin-bindable form is partly or wholly deglycanated (heparanase or heparitinase)).
T1 construct: Seen as 190 kDa multimer and 80 kDa band on blots; also called cell surface SDC1; native SDC1
T1 sequence: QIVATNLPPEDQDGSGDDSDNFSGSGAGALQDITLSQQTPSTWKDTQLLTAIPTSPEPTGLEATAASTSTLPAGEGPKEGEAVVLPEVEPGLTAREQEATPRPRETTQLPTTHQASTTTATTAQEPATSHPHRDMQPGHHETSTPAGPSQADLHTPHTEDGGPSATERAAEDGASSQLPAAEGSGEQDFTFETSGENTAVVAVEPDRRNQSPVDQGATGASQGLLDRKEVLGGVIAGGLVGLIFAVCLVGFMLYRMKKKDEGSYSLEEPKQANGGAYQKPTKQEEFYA
As to the kind of experiment: C-10-intein beads, HEK293T/SDC1 lysate, B-B4 blot. As to the method: (§1) All lacritin truncations were expressed as intein fusion proteins for affinity precipitation. Asterisk indicates mitogenic domain (Wang et al, submitted), and boxes represent PSIPRED-predicted alpha helices. (B) Lacritin-, C-5-, C-10-, C-15-, C-25- and C-59-intein beads were incubated with lysates from HEK293T cells stably expressing human SDC1. Beads were washed and treated with heparitinase I/chondroitinase ABC. The digests were centrifuged, and pellets (P) and supernatants (S) blotted with mAb B-B4 for SDC1 core protein, all as in FIG. 2. (C) Incubation of lacritin-, N-15- and N-24-intein beads with the same human SDC1 lysates was followed with identical washing, heparitinase I/chondroitinase ABC digestion, centrifugation and B-B4 mAb blotting. Lys, lysate. Figure 3B: Figure 3C: Figure 4A: FIG. 4. Lacritin-SDC1 binding is inhibited by soluble hS1ED, lacritin and N-24, but not by C-25, C-59, HS, CS, SDC2 or SDC4. (A) Top row, lacritin-intein beads were incubated with human SDC1 lysates from stably expressing HEK293T cells in the presence of increasing amounts of soluble HS (70-700 µg), HS (700 µg) plus CS (700 µg), lacritin (14-700 µg) or no inhibitor (−). Quantity of soluble inhibitor was calibrated relative to the approximately 7-8 µg of human SDC1 elutable from lacritin-intein beads with 1 M NaCl. […] (B) Quantification of inhibition binding.

Experiment [2] deals with T1, human syndecan-1 (SDC1). As to the kind of experiment: soluble competitor in lacritin-intein affinity precipitation of SDC1. On the procedure:
as §1

The target of experiment [3] is T1, human syndecan-1 (SDC1). In words: C-5-intein beads, HEK293T/SDC1 lysate, B-B4 blot. On the procedure:
as §1

In experiment [4] the target is T1, human syndecan-1 (SDC1). In words: N-15-intein beads, HEK293T/SDC1 lysate, B-B4 blot. As to the method: as §1
Experiment [5] has as its target T1, human syndecan-1 (SDC1). In words: N-24-intein beads, HEK293T/SDC1 lysate, B-B4 blot. As to the method:
as §1

Experiment [6] has as its target T1, human syndecan-1 (SDC1). In words: soluble competitor of lacritin-intein beads for SDC1 in HEK293T lysate, B-B4 blot. As to the method:
as §1

Experiment [7] addresses T2, alpha-2C-adrenergic receptor (ADRA2C) (human, UniProt P18825 1-462, limits assumed).
T2 sequence (looked up): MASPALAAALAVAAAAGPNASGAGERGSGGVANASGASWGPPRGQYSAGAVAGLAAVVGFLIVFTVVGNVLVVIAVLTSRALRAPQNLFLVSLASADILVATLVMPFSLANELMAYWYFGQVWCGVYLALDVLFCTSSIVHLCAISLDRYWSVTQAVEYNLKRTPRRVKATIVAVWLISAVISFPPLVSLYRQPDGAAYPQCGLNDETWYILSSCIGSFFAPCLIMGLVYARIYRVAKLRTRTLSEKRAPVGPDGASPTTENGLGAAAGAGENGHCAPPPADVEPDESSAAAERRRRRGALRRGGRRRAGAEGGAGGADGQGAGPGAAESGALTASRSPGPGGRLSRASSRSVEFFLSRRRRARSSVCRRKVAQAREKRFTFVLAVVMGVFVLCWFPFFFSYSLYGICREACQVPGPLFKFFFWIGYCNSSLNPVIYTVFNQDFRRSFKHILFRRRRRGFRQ
In words: low salt competition against 125I-iodoclonidine on immobilized human ADRA2C, repeated assays. As to the method:
If we are correct that syndecan-1 increases lacritin's affinity for a G-protein coupled receptor (GPCR), possibly some low affinity GPCR binding can be detected without syndecan-1 in low salt. To ask this question, a low salt screen of 31 immobilized human GPCRs in which 10 nM lacritin, N-24 or C-25 were asked to compete with 125I-receptor ligand for receptor binding. […] Although preliminary, this compares to 1698 nM for native agonist epinephrine. Possibly N-24's lack of seven negatively charged residues may improve binding in the absence of syndecan-1.

A further experiment addresses T3, human syndecan-2 (SDC2) (human, UniProt P34741 19-201, heparan sulfate chains).
T3 construct: also called native SDC2
In words: SDC2 purified on FGF2-GST, salt eluted, heparitinase digested, incubated with lacritin-intein beads. On the procedure:
(§2) Lysates were cleared by centrifugation (20,000×g) at 4° C., and protein concentration of supernatant was estimated by the BCA assay (Pierce, Rockford Ill.). Lacritin-intein or lacritin-GST (5 µg) and FGF2-GST fusion proteins were respectively bound to chitin beads (New England Biolabs, Ipswich Mass.) or glutathione-Sepharose beads (Amersham Biosciences, Piscataway N.J.). Beads were incubated with lysates (~200 µg of SDC1 stably expressing HEK293T cells) overnight at 4° C., and washed three times with binding buffer as above (each wash three times the bead volume). In competition assays, SDC1 lysates were mixed with increasing amounts of soluble lacritin, HS, HS plus CS (Seikagaku America, Falmouth Mass.), bacterially expressed human SDC1 ectodomain (hS1ED), native SDC2, native SDC4, N-24 or C-25. Mixtures were then applied to lacritin immobilized beads, and further studied as described below. For sequential pull down assays, cell lysates were sequentially affinity precipitated with FGF2-GST or lacritin-intein. After FGF2-GST depletion of all available FGF-bindable SDC1, one-half was precipitated with lacritin-intein. The other half was methanol precipitated overnight and resuspended in heparitinase buffer. […]

A further experiment addresses T4, human syndecan-4 (SDC4) (human, UniProt P31431 19-198, heparan sulfate chains).
T4 construct: also called native SDC4
T4 sequence (looked up): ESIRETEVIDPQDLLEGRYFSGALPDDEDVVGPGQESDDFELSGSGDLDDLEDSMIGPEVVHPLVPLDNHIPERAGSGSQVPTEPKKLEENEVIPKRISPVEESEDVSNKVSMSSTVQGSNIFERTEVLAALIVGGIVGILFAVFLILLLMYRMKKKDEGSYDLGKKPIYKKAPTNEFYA
As to the kind of experiment: SDC4 purified on FGF2-GST, salt eluted, heparitinase digested, incubated with lacritin-intein beads. On the procedure: as §2

Experiment [8] addresses T1, human syndecan-1 (SDC1). In words: lacritin-intein-chitin column, detergent lysate of surface biotinylated HSG cells, 1 M NaCl elution, streptavidin blot, mass spectrometry. On the procedure:
Cell surface biotinylation, and affinity chromatography followed the method of Chen et al (1997). Briefly, six 150 mm culture dishes of 80% confluent HSG cells were washed twice on ice with ice-cold PBS and incubated for 30 min with EZ-Link Sulfo-NHS-LC Biotin (Pierce, Rockford Ill.). Cells were then washed twice with PBS-glycine, gently loosened with a cell scraper, and pelleted at 4° C. The pellet was twice resuspended in 25 ml PBS-glycine, and incubated for 30 min in 1 ml lysis buffer (50 mM Tris HCl, pH 7.4, 100 mM NaCl, 5 mM MnCl2, 2 mM PMSF, 200 mM n-octyl-β-D-glucopyranoside, and protease inhibitors (Roche Diagnostics, Penzberg Germany)). Lysate was centrifuged for 15 min at 4° C., and the supernatant applied to a 1 ml pre-column then washed through with 1 ml of binding buffer (50 mM Tris HCl, pH 7.4, 100 mM NaCl, 5 mM MnCl2, 2 mM PMSF, 50 mM n-octyl-β-D-glucopyranoside) and collected. […] For the latter, blots were blocked with PBS containing 0.1% Tween-20 and 2.5% milk for 1 h at 37° C., washed three times with PBS/0.1% Tween-20, incubated in 50 ml of 1:1000 streptavidin-horseradish peroxidase conjugate (Amersham Biosciences, Piscataway N.J.) in PBS/0.1% Tween-20, washed five times with the same buffer and then detected using ECL reagent (Pierce, Rockford Ill.). […]

T3 sequence (P34741 19-201 limits assumed): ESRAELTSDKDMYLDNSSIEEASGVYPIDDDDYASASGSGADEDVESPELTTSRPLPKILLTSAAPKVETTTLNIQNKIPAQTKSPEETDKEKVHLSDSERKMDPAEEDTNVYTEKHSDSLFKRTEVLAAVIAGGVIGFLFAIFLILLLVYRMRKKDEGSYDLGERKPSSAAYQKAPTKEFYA

B1: C-10 lacritin-intein (ligand, not shown: small tags and cut ends)
chain: EDASSDSTGADPAQEAGTSKPNEEISGPAEPASPPETTTTAQETSAAAVQGTAKVTSSRQELNPLKSIVEKSILLTEQALAKAGKGMHGGVPGGKQFIENGSEFAQKLL
Consider B1, for which the binding result with human syndecan-1 (SDC1) [1] was “binds”.

B2: soluble C-25 lacritin (ligand)
chain: EDASSDSTGADPAQEAGTSKPNEEISGPAEPASPPETTTTAQETSAAAVQGTAKVTSSRQELNPLKSIVEKSILLTEQALAKAGKGMHGGVPGG
notes: Range counted by me
Take B2: in the experiment with human syndecan-1 (SDC1) [2], the binding result is recorded as “no binding (tested: 14 µg)”.

B3: C-5 lacritin-intein (ligand, not shown: small tags and cut ends)
chain: EDASSDSTGADPAQEAGTSKPNEEISGPAEPASPPETTTTAQETSAAAVQGTAKVTSSRQELNPLKSIVEKSILLTEQALAKAGKGMHGGVPGGKQFIENGSEFAQKLLKKFSL
notes: All lacritin truncations were expressed as intein fusion proteins
In the case of B3, the binding result with human syndecan-1 (SDC1) [3] was “binds”.

B4: N-15 lacritin-intein (ligand, not shown: small tags and cut ends)
chain: AGTSKPNEEISGPAEPASPPETTTTAQETSAAAVQGTAKVTSSRQELNPLKSIVEKSILLTEQALAKAGKGMHGGVPGGKQFIENGSEFAQKLLKKFSLLKPWA
With B4, the binding result with human syndecan-1 (SDC1) [4] was “binds”.

B5: N-24 lacritin-intein (ligand, not shown: small tags and cut ends)
chain: ISGPAEPASPPETTTTAQETSAAAVQGTAKVTSSRQELNPLKSIVEKSILLTEQALAKAGKGMHGGVPGGKQFIENGSEFAQKLLKKFSLLKPWA
B5: the binding result with human syndecan-1 (SDC1) [5] is given as “binds”.

B6: soluble N-24 lacritin (ligand)
chain: B5 chain
notes: Range counted by me
Regarding B6, the binding result with human syndecan-1 (SDC1) [6] was “binds”. In [7], the Ki (as a rule, a dissociation constant, usually derived from enzyme kinetics or from competition with a known ligand) is 1290 nM.

B7: lacritin-intein (lacritin coupled to chitin beads via chitin-binding intein) (ligand, not shown: small tags and cut ends)
chain: EDASSDSTGADPAQEAGTSKPNEEISGPAEPASPPETTTTAQETSAAAVQGTAKVTSSRQELNPLKSIVEKSILLTEQALAKAGKGMHGGVPGGKQFIENGSEFAQKLLKKFSLLKPWA
notes: Bacterial fusion protein held on chitin beads; also called lacritin-intein beads; lacritin column
Take B7: the binding result is “no binding” with human syndecan-2 (SDC2), “no binding” with human syndecan-4 (SDC4) and “binds” in the experiment with human syndecan-1 (SDC1) [8].

B8: soluble lacritin (recombinant) (ligand)
chain: B7 chain
notes: also called intact lacritin
With B8, the binding result with human syndecan-1 (SDC1) [6] is listed as “binds”.

B9: soluble C-59 lacritin (ligand)
chain: EDASSDSTGADPAQEAGTSKPNEEISGPAEPASPPETTTTAQETSAAAVQGTAKVTSSRQ
notes: Range counted by me
Regarding B9, in the experiment with human syndecan-1 (SDC1) [2], the binding result is recorded as “no binding (tested: 14 µg)”.
